Key:
Assay in all cases: holdup assay
Parameters in all cases: key: below the threshold = too weak to quantify, mostly under pKd 3.1 to 4
[1] = target: T1, MPDZ_12, O75970
T1 sequence (O75970 1857-1958, limits assumed, looked up): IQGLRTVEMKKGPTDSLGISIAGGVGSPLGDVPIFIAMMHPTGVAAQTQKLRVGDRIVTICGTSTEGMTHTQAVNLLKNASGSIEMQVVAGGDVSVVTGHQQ

[2] = target: Inadl_8, Q8NI35
[3] = target: Inadl_3, Q8NI35
[4] = target: GRIP2_6, Q9C0E4
[5] = target: NHERF2_2, Q15599
[6] = target: T2, LNX2_3, Q8N448
T2 sequence (Q8N448 463-564, limits assumed, looked up): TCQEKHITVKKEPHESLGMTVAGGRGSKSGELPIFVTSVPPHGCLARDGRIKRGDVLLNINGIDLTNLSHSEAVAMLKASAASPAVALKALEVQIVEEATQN

[7] = target: T3, APBA1_2, Q02410
T3 sequence (Q02410 742-832, limits assumed, looked up): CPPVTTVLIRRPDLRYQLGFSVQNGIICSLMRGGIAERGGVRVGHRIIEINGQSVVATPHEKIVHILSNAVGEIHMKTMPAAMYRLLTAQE

[8] = target: NHERF4_1, Q86UT5-2
[9] = target: T4, NHERF3_4, Q5T2W1
T4 sequence (Q5T2W1 373-468, limits assumed, looked up): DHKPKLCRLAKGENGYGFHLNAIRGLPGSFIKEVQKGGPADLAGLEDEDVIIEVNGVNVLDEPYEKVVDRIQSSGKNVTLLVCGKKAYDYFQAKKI

[10] = target: SCRIB_1, Q14160
[11] = target: MAGI2_2, Q86UL8
[12] = target: MAGI1_1, Q96QZ7
[13] = target: IL16_4, Q14005
[14] = target: GRASP, Q7Z6J2
[15] = target: T5, LIN7A, O14910
T5 sequence (O14910 103-200, limits assumed, looked up): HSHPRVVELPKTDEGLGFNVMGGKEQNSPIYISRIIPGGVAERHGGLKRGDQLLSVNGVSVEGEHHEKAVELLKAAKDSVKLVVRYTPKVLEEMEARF

[16] = target: PARD3_3, Q8TEW0
[17] = target: T6, RAPGEF6, Q8TEU7
T6 sequence (Q8TEU7 525-625, limits assumed, looked up): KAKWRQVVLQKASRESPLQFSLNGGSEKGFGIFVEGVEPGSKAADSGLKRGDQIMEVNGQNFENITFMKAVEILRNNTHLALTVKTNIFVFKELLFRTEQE

[18] = target: T7, CARD11, Q9BXL7
T7 sequence (Q9BXL7 662-765, limits assumed, looked up): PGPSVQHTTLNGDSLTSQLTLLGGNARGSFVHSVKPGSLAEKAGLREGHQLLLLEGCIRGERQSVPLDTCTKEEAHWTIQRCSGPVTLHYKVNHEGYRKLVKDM

[19] = target: LIMK2, P53671
[20] = target: T8, SHANK1, Q9Y566
T8 sequence (Q9Y566 658-767, limits assumed, looked up): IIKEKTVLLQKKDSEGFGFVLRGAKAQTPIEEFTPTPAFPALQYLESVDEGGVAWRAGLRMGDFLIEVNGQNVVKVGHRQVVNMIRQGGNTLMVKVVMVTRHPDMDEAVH

[21] = target: TJP2_1, Q9UDY2
[22] = target: LNX1_3, Q8TBB1
[23] = target: SNX27, Q96L92
[24] = target: HTRA2, O43464
[25] = target: DLG5_1, Q8TDM6
[26] = target: Inadl_9, Q8NI35
[27] = target: GRIP2_4, Q9C0E4
[28] = target: T9, PDZD2_2, O15018
T9 sequence (O15018 329-429, limits assumed, looked up): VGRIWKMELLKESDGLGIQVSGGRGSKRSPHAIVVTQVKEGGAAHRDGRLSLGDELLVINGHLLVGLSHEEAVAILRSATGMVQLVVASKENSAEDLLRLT

[29] = target: DLG4_3, P78352
[30] = plain residues with an end cap or a label only (N-terminal biotin on a linker: ado-ado)
[31] = plain residues with an end cap or a label only (N-terminal biotin on a linker: (peg)3)

Measured: pKd

DLG4_3, P78352, sequence (P78352 306-403): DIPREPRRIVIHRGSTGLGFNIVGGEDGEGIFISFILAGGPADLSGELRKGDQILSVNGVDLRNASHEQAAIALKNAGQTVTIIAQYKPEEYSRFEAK
LNX1_3, Q8TBB1, sequence (Q8TBB1 500-596): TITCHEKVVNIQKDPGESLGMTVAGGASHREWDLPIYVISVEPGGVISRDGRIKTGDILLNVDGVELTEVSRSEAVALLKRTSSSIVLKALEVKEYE
MAGI1_1, Q96QZ7, sequence (Q96QZ7 1-106): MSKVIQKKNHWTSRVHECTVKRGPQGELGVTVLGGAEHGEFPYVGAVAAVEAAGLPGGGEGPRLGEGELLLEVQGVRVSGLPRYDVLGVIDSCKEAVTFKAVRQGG
MAGI2_2, Q86UL8, sequence (Q86UL8 410-522): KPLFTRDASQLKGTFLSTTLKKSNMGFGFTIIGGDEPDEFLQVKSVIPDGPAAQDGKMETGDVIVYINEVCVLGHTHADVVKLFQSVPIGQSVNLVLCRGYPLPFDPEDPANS
DLG5_1, Q8TDM6, sequence (Q8TDM6 617-713): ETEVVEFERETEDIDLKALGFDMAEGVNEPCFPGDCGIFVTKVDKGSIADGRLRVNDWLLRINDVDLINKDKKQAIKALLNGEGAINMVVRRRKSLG
Inadl_8, Q8NI35, sequence (Q8NI35 1425-1530): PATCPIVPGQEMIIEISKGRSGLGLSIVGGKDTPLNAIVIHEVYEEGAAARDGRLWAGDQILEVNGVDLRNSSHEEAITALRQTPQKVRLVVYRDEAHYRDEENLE
SCRIB_1, Q14160, sequence (Q14160 718-814): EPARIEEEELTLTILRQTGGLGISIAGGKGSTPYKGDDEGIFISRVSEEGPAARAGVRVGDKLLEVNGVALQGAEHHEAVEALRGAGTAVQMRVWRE
IL16_4, Q14005, sequence (Q14005 1229-1329): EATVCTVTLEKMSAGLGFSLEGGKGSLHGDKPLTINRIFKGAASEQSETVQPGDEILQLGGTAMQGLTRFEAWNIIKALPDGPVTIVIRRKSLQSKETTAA
LIMK2, P53671, sequence (P53671 143-248): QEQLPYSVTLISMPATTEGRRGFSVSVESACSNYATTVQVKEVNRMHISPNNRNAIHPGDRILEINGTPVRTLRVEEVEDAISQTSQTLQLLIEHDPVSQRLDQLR
GRIP2_6, Q9C0E4, sequence (Q9C0E4 648-740): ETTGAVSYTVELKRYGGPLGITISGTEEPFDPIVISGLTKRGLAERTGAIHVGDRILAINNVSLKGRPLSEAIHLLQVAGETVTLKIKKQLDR
PARD3_3, Q8TEW0, sequence (Q8TEW0 582-685): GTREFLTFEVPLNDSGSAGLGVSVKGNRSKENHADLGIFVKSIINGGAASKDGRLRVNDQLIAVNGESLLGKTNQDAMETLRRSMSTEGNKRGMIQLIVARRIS
GRASP, Q7Z6J2, sequence (Q7Z6J2 96-193): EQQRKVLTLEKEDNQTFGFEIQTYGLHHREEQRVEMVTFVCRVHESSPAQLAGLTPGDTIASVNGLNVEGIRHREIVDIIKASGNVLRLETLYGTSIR
NHERF4_1, Q86UT5-2, sequence (Q86UT5 other isoform, or with tags, fused parts or gaps): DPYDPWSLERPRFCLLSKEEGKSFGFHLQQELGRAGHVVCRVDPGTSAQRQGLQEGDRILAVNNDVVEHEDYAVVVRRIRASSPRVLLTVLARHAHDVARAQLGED
TJP2_1, Q9UDY2, sequence (Q9UDY2 24-128): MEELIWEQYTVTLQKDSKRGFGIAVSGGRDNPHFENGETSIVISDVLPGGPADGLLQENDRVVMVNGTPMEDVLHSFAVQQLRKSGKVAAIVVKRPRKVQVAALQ
NHERF2_2, Q15599, sequence (Q15599 142-238): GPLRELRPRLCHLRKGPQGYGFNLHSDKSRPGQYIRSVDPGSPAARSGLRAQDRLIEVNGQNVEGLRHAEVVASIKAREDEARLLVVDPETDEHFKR
Inadl_3, Q8NI35, sequence (Q8NI35 359-469): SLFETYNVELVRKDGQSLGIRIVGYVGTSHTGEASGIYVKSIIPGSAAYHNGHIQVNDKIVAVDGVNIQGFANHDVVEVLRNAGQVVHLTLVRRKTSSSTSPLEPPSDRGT
HTRA2, O43464, sequence (O43464 355-458): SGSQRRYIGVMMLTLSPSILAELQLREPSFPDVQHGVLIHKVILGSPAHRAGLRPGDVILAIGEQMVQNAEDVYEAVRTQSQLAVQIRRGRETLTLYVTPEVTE
Inadl_9, Q8NI35, sequence (Q8NI35 1530-1615): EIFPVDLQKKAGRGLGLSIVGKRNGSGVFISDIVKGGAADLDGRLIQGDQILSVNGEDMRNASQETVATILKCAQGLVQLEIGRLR
GRIP2_4, Q9C0E4, sequence (Q9C0E4 446-548): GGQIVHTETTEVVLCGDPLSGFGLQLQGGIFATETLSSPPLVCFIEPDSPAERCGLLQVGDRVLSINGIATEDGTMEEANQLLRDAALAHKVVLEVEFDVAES

RTQSSDSAYV [GJD2, Q9UKL4]
3.7: [2]; [30]
3.48: [14]; [30]
3.47: [22]; [30]
below the threshold: [1]; [30] | [3]; [30] | [4]; [30] | [6]; [30] | [10]; [30] | [11]; [30] | [12]; [30] | [13]; [30] | [15]; [30] | [17]; [30] | [18]; [30] | [19]; [30] | [20]; [30] | [24]; [30] | [25]; [30] | [27]; [30] | [29]; [30]
3.68: [16]; [30]
3.85: [26]; [30]
4.09: [7]; [30] | [21]; [30]
5.15: [28]; [30]
3.54: [9]; [30]
3.49: [5]; [30]
4.13: [23]; [30]
3.6: [8]; [30]

LTAQEQPVYI [APBA1, Q02410]
4.6: [26]; [30]
below the threshold: [1]; [30] | [2]; [30] | [3]; [30] | [4]; [30] | [5]; [30] | [6]; [30] | [8]; [30] | [9]; [30] | [10]; [30] | [12]; [30] | [14]; [30] | [15]; [30] | [17]; [30] | [18]; [30] | [19]; [30] | [20]; [30] | [21]; [30] | [22]; [30] | [23]; [30] | [25]; [30] | [27]; [30] | [29]; [30]
4.82: [16]; [30]
3.57: [13]; [30]
3.53: [24]; [30]
4.36: [7]; [30] | [28]; [30]
3.52: [11]; [30]

SRPTKGPTLL [PLEKHH2, Q8IVE3]
3.61: [2]; [30]
below the threshold: [1]; [30] | [3]; [30] | [4]; [30] | [5]; [30] | [6]; [30] | [12]; [30] | [13]; [30] | [15]; [30] | [16]; [30] | [17]; [30] | [18]; [30] | [19]; [30] | [20]; [30] | [22]; [30] | [24]; [30] | [25]; [30] | [27]; [30] | [29]; [30]
4.41: [8]; [30]
4.2: [11]; [30]
4.25: [7]; [30]
3.86: [10]; [30]
3.5: [26]; [30]
3.87: [28]; [30]
5.22: [14]; [30]
3.76: [23]; [30]
3.57: [21]; [30]
3.65: [9]; [30]

YDEPTTTTSVPL [SARS-Cov2-3a, P0DTC3]
3.83: [14]; [31]
4.29: [9]; [31]
below the threshold: [1]; [31] | [2]; [31] | [3]; [31] | [4]; [31] | [5]; [31] | [6]; [31] | [7]; [31] | [10]; [31] | [11]; [31] | [12]; [31] | [13]; [31] | [15]; [31] | [16]; [31] | [17]; [31] | [18]; [31] | [19]; [31] | [20]; [31] | [21]; [31] | [22]; [31] | [23]; [31] | [24]; [31] | [25]; [31] | [26]; [31] | [27]; [31] | [28]; [31] | [29]; [31]
4.43: [8]; [31]

PLDSQQHTEV [FAT1, Q14517]
3.69: [26]; [30]
4.7: [23]; [30]
below the threshold: [1]; [30] | [2]; [30] | [3]; [30] | [4]; [30] | [5]; [30] | [6]; [30] | [8]; [30] | [9]; [30] | [11]; [30] | [12]; [30] | [13]; [30] | [15]; [30] | [16]; [30] | [17]; [30] | [18]; [30] | [19]; [30] | [20]; [30] | [21]; [30] | [22]; [30] | [24]; [30] | [25]; [30] | [27]; [30] | [29]; [30]
4.79: [28]; [30]
4.12: [10]; [30]
4.34: [14]; [30]
3.7: [7]; [30]
